One experiment concerns the target T1, T7-tagged Apaf-530 (Homo sapiens, UniProt O14727).
T1 construct: expressed in transfected cells; host or cells: 293 cells
T1 sequence (O14727 1-530 isoform O14727-3): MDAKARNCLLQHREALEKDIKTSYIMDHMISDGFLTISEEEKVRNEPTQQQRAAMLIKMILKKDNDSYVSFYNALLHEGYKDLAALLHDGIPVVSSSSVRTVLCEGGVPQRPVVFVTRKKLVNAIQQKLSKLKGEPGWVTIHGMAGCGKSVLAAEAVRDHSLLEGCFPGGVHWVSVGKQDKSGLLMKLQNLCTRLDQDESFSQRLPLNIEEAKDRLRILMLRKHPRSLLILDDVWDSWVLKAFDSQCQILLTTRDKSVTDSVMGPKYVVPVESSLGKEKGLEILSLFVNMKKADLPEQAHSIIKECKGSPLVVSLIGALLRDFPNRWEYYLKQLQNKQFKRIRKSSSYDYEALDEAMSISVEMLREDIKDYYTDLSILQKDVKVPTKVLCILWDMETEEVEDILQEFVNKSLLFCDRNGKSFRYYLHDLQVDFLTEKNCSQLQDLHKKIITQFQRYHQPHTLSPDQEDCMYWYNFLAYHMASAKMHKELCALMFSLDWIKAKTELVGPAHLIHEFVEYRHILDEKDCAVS
The experiment can be described thus: Co-immunoprecipitation of Flag-tagged Apaf-1 variants with T7-tagged Apaf-530 in 293 cells. Format: binding. As to conditions: anti-Flag immunoprecipitation, anti-T7 blot, 36 hours, FIG. 11. As to the method:
The ability of APAF-530 to oligomerize pro-caspase-9 was tested. Co-transfection experiments in 293 cells were performed with T7-tagged Apaf-530 and different Flag-tagged Apaf-1 variants, and cell lysates were prepared and immunoprecipitated with an anti-Flag antibody. The immunoprecipitates were analyzed by Western blotting with an anti-T7 antibody.
In FIG. 11, 293 cells were co-transfected with constructs encoding T7-tagged Apaf-530 and an empty vector (lane 1) or constructs encoding Flag-tagged Apaf-1 (lane 2), Flag-tagged Apaf-530 (lane 3), Flag-tagged Apaf-530ΔCARD (lane 4) or Flag-tagged Apaf-97 (lane 5). After 36 hours, extracts were prepared and immunoprecipitated with a monoclonal antibody to the Flag epitope. The immunoprecipitates (upper panel) were analyzed by SDS-PAGE and immunoblotted with a horseradish peroxides-conjugated T7 antibody. The corresponding cellular extracts were also analyzed by SDS-PAGE and immunoblotted with a horseradish peroxides-conjugated T7 antibody (middle panel) or an anti-Flag antibody (lower panel).

Experiment [1] has as its system chimeric procaspase-3 with an N-terminal procaspase-9 prodomain. Description: Processing of chimeric procaspase-3 by Apaf-530-bound caspase-9. Format: biochemical. Conditions: Apaf-530 in the absence of procaspase-9, FIG. 15. As to the method: (§1) To achieve this, a chimeric procaspase-3 with an N-terminal caspase-9 prodomain was constructed. Caspase-9 prodomain in the chimera may allow recruitment of the chimeric procaspase-3 to the Apaf-530-caspase-9 complex. […] In FIG. 15, ^35S-labeled chimeric procaspase-3 with an N-terminal procaspase-9 prodomain (lanes 1-4) or WT procaspase-3 (lanes 5-8) were incubated with buffer or Apaf-530 in the presence or absence of a non-radiolabeled WT procaspase-9 and analyzed by SDS-PAGE followed by autoradiography.

The next experiment concerns the target T2, T7-tagged Bcl-xL (Homo sapiens, UniProt Q07817).
T2 construct: expressed in transfected cells; host or cells: 293 cells
Description: Co-immunoprecipitation of Flag-tagged Apaf-1 variants or procaspase-9 with T7-tagged Bcl-xL in 293 cells. Conditions: anti-Flag immunoprecipitation, anti-T7 blot, 36 hours, FIG. 16. In kind it is binding. As to the method: In vivo interaction experiments between Apaf-1 variants and Bcl-xL were performed. To analyze the ability of Apaf-1 to interact with Bcl-xL, 293 cells were co-transfected with constructs encoding T7-tagged Bcl-xL and constructs encoding Flag-tagged Apaf-97 (FIG. 16, lane 1), Apaf-1 (FIG. 16, lane 2), Apaf-530 (FIG. 16, lane 3) Apaf-530ΔCARD (FIG. 16, lane 4), or procaspase-9 C287A (FIG. 16, lane 5). After 36 hours, extracts were prepared and immunoprecipitated with a monoclonal antibody to the Flag epitope. The immunoprecipitates (FIG. 16, upper panel) were analyzed by SDS-PAGE and immunoblotted with a horseradish peroxidase-conjugated T7 antibody. The corresponding cellular extracts were also analyzed by SDS-PAGE and immunoblotted with a horseradish peroxides-conjugated T7 antibody (FIG. 16, middle panel) or an anti-Flag antibody (FIG. 16, lower panel).

For a further experiment, the target named is T3, procaspase-3 (Homo sapiens, UniProt P42574).
T3 construct: made in house; host or cells: coupled in vitro transcription/translation in rabbit reticulocyte lysate (TNT Kit, Promega)
T3 sequence (P42574 1-277): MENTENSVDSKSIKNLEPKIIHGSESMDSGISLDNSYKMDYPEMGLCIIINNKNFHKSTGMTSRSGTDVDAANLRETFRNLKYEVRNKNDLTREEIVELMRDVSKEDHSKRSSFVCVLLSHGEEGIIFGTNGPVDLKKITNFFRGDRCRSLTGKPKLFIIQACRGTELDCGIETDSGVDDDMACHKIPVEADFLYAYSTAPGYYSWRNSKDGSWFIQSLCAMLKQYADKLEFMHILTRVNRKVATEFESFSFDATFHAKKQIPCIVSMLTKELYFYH
The experiment can be described thus: Processing of procaspase-3 by Apaf-530-bound caspase-9. In kind it is biochemical. Conditions: Apaf-530 with non-radiolabeled WT procaspase-9, FIG. 15. As to the method: as §1

T2 sequence (Q07817 whole entry): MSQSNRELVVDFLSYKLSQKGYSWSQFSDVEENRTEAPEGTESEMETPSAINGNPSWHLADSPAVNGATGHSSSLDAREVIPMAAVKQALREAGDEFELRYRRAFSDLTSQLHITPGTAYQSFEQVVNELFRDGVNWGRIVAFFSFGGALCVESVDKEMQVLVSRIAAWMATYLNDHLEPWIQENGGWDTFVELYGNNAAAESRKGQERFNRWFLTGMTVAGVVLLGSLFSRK

B1: Apaf-530: truncated Apaf-1 (residues 1-530) lacking its WD-40 repeats, recombinant (protein, UniProt O14727 1-530, looked up, fragment)
chain: MDAKARNCLLQHREALEKDIKTSYIMDHMISDGFLTISEEEKVRNEPTQQQRAAMLIKMILKKDNDSYVSFYNALLHEGYKDLAALLHDGIPVVSSSSGKDSVSGITSYVRTVLCEGGVPQRPVVFVTRKKLVNAIQQKLSKLKGEPGWVTIHGMAGCGKSVLAAEAVRDHSLLEGCFPGGVHWVSVGKQDKSGLLMKLQNLCTRLDQDESFSQRLPLNIEEAKDRLRILMLRKHPRSLLILDDVWDSWVLKAFDSQCQILLTTRDKSVTDSVMGPKYVVPVESSLGKEKGLEILSLFVNMKKADLPEQAHSIIKECKGSPLVVSLIGALLRDFPNRWEYYLKQLQNKQFKRIRKSSSYDYEALDEAMSISVEMLREDIKDYYTDLSILQKDVKVPTKVLCILWDMETEEVEDILQEFVNKSLLFCDRNGKSFRYYLHDLQVDFLTEKNCSQLQDLHKKIITQFQRYHQPHTLSPDQEDCMYWYNFLAYHMASAKMHKELCALMFSLDWIKAKTELVGPAHLIHEFVEYR
On to B1, for which, in the experiment with T7-tagged Apaf-530, the “co-immunoprecipitation with T7-Apaf-530” value is “co-immunoprecipitated”. Further, in experiment [1], the “processing of chimeric procaspase-3” value is “no processing was observed”. The “co-immunoprecipitation with Bcl-xL” value with T7-tagged Bcl-xL is “capable of immunoprecipitating Bcl-xL”. In addition, in the experiment with procaspase-3, the “processing of WT procaspase-3” value is “no processing of procaspase-3 was observed”.

These data come from US6403765B1, “Truncated Apaf-1 and methods of use thereof” (Thomas Jefferson University, priority 1998, dated 2002).
